Results taken from patent publication US20230118104A1, “COMPOSITIONS AND METHODS FOR TREATING PANCREATIC ENZYME DEFICIENCIES IN MAMMALS” (Vets Plus, Inc., priority 2018, published 2023).

B1: Porcine Lipase: Lipase enzyme from porcine (protein, UniProt P00591 1-450, looked up)
Pancreatic triacylglycerol …: SEVCFPRLGCFSDDAPWAGIVQRPLKILPWSPKDVDTRFLLYTNQNQNNYQELVADPSTITNSNFRMDRKTRFIIHGFIDKGEEDWLSNICKNLFKVESVNCICVDWKGGSRTGYTQASQNIRIVGAEVAYFVEVLKSSLGYSPSNVHVIGHSLGSHAAGEAGRRTNGTIERITGLDPAEPCFQGTPELVRLDPSDAKFVDVIHTDAAPIIPNLGFGMSQTVGHLDFFPNGGKQMPGCQKNILSQIVDIDGIWEGTRDFVACNHLRSYKYYADSILNPDGFAGFPCDSYNVFTANKCFPCPSEGCPQMGHYADRFPGKTNGVSQVFYLNTGDASNFARWRYKVSVTLSGKKVTGHILVSLFGNEGNSRQYEIYKGTLQPDNTHSDEFDSDVEVGDLQKVKFIWYNNNVINPTLPRVGASKITVERNDGKVYDFCSQETVREEVLLTLNPC
B2: Porcine Amylase: Amylase enzyme from porcine (protein, UniProt P00690 16-511, looked up)
Pancreatic alpha-amylase: QYAPQTQSGRTSIVHLFEWRWVDIALECERYLGPKGFGGVQVSPPNENIVVTNPSRPWWERYQPVSYKLCTRSGNENEFRDMVTRCNNVGVRIYVDAVINHMCGSGAAAGTGTTCGSYCNPGNREFPAVPYSAWDFNDGKCKTASGGIESYNDPYQVRDCQLVGLLDLALEKDYVRSMIADYLNKLIDIGVAGFRIDASKHMWPGDIKAVLDKLHNLNTNWFPAGSRPFIFQEVIDLGGEAIQSSEYFGNGRVTEFKYGAKLGTVVRKWSGEKMSYLKNWGEGWGFMPSDRALVFVDNHDNQRGHGAGGASILTFWDARLYKVAVGFMLAHPYGFTRVMSSYRWARNFVNGQDVNDWIGPPNNNGVIKEVTINADTTCGNDWVCEHRWRQIRNMVWFRNVVDGQPFANWWANGSNQVAFGRGNRGFIVFNNDDWQLSSTLQTGLPGGTYCDVISGDKVGNSCTGIKVYVSSDGTAQFSISNSAEDPFIAIHAESKL

Legend:
Type in all cases: biochemical
[1] = Lipase enzyme analysis, free fatty acid (Phenolphthalein) Test; details: substrate Fat / Vegetable oil; enzyme 1 mg/ml; 480 nM; n = 4
Experimental: Lipase enzyme from porcine and Rhizopus oryzae at 1 mg/ml concentration and a control of no enzymes were subjected the free fatty acid (Phenolphthalein) Test followed by spectrophotometric analysis at […].

[2] = Amylase enzyme analysis, Benedict's Test, substrate Maltose; details: enzyme 1 mg/ml, 10 minutes, pH 7, 38° C., 580 nm, n = 4
Experimental: (§1) Amylase enzyme from porcine and Bacillus amyloliquefaciens at 1 mg/ml concentration and a control of no enzymes were subjected to the Benedict's Test for 10 minutes at pH 7, 38° C., followed by spectrophotometric analysis at […].

[3] = Amylase enzyme analysis, Benedict's Test, substrate Starch; details: enzyme 1 mg/ml, 10 minutes, pH 7, 38° C., 580 nm, n = 4
Experimental: as §1

[4] = Amylase enzyme analysis, Benedict's Test, substrate Dextrose; details: enzyme 1 mg/ml, 10 minutes, pH 7, 38° C., 580 nm, n = 4
Experimental: as §1

Row | Molecule | absorbance, free fatty acid (Phenolphthalein) Test [1] | absorbance, Benedict's Test [2] | absorbance, Benedict's Test [3] | absorbance, Benedict's Test [4]
1 | B1 | 3.17 +/− 0.11 |  |  | 
2 | B2 |  | 3.108 +/− 0.15 | 2.087 +/− 0.11 | 3.078 +/− 0.13
